Results: PMC11497264 (2024)
Bridge positions count the residues as written; N and C are the ends.

B1: LCP W, loop-derived cyclic peptide based on spike residues 480-488 of the Wuhan strain (peptide)
peptide: H-CNGVEGFNC-NH2
modifications: disulfide 1-9
SMILES: CC(C)[C@@H]1NC(=O)CNC(=O)[C@H](CC(N)=O)NC(=O)[C@@H](N)CSSC[C@@H](C(N)=O)NC(=O)[C@H](CC(N)=O)NC(=O)[C@H](Cc2ccccc2)NC(=O)CNC(=O)[C@H](CCC(=O)O)NC1=O
B2: Pep42, 13-mer cyclopeptide (peptide)
peptide: H-CTVALPGGYVRVC-NH2
modifications: disulfide 1-13
SMILES: CC(C)C[C@@H]1NC(=O)[C@H](C)NC(=O)[C@H](C(C)C)NC(=O)[C@H]([C@@H](C)O)NC(=O)[C@@H](N)CSSC[C@@H](C(N)=O)NC(=O)[C@H](C(C)C)NC(=O)[C@H](CCCNC(=N)N)NC(=O)[C@H](C(C)C)NC(=O)[C@H](Cc2ccc(O)cc2)NC(=O)CNC(=O)CNC(=O)[C@@H]2CCCN2C1=O

What was measured:
[1] = molecular target: T1, human glucose-regulated protein GRP78 (human, UniProt P11021 19-654); assay: SPR
T1 sequence (P11021 19-654): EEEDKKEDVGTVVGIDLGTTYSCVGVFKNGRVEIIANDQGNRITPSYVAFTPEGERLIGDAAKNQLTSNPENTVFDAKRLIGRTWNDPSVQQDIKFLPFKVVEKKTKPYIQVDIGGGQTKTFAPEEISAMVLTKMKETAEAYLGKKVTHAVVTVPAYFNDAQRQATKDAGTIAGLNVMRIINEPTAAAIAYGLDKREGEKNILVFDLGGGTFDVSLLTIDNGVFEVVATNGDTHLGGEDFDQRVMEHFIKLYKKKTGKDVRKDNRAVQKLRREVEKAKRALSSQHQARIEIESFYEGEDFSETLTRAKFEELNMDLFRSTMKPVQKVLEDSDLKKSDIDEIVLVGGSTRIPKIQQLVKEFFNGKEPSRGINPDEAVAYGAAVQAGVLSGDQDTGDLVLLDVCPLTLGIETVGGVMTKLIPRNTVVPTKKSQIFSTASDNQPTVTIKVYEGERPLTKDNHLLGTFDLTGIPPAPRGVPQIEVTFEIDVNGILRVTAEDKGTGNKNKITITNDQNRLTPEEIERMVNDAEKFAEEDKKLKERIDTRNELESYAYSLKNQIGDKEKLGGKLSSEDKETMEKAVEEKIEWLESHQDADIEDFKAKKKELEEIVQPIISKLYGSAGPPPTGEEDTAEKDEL

[2] = molecular target: T1, human glucose-regulated protein GRP78; assay: SPR; remark: listed apart in the source
[3] = molecular target: T1, human glucose-regulated protein GRP78; assay: SPR; two-state model, kd1
[4] = molecular target: T1, human glucose-regulated protein GRP78; assay: SPR; two-state reaction model

Binder	koff [1] [s⁻¹]	Kd [2] [µM]	koff [3] [s⁻¹]	Kd [4] [µM]
B1	0.43	259		
B2			0.678	3430
